For the experiment, the target named is ZEBOV-VP40蛋白C端的特异的抗原肽13肽 […] (扎伊尔型埃博拉病毒 (Zaire ebolavirus)). The experiment is described as follows: indirect ELISA on coated VP40 peptide (hybridoma screening, P/N≥2.1 positive). For orientation: An ELISA detects its analyte on a solid surface through an enzyme-linked reagent.

B1: 抗埃博拉病毒VP40蛋白单克隆抗体F1B4 (antibody, V domains shown)
VH: EVRLQQSGPELGKPGASVKISCKTSGYVFTEYTIHWMKQSHGKSLEWIGNIYPKNGGTAYSQKFKGRATLSADKSSRTAYIELRSLTSEDSAVYYCARDNYGFDCWGQGTTLTVSS
VL: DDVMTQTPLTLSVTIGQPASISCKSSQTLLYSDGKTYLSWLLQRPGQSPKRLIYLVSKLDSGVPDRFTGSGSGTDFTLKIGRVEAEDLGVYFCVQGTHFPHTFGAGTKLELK
Consider B1, for which the binding result is recorded as “binds”.

For the origin of these results see CN108424448A (UNIV ZHEJIANG, dated 2018).
